Results from the supplement of paper PMC9732359.
± gives the uncertainty stated by the source.

Assay: protein stability index of a GFP-peptide fusion (yeast GPS) (PSI 1-4); higher = more stable; sorted into four equal gates, so the index is relative within each strain
How it was run: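 Peptides tiling yeast proteins in 17-residue segments were fused downstream of GFP, with Cherry expressed from the same plasmid. As a pooled library in yeast, mid-log cultures grown in leucine-free medium were sorted into four equal gates by GFP/Cherry fluorescence ratio. Gate plasmids were PCR-amplified and Illumina-sequenced, and barcodes linked reads to strains. Each peptide received a protein stability index equal to the sum of each gate's read frequency times its gate number.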

LVKDRKFLREVFVDGEA [RPO21]
protein stability index (doa10∆): 3.1 ± 0.14 | protein stability index (pdr5∆): 3.46 ± 0.27 | protein stability index (san1∆): 2.62 ± 0.1 | protein stability index (ubr1∆): 2.85 ± 0.21

ITHQGANSESGHYQAFI [UBP6]
protein stability index (doa10∆): 3.04 ± 0.19 | protein stability index (pdr5∆): 2.95 ± 0.08 | protein stability index (san1∆): 3.16 ± 0.071 | protein stability index (ubr1∆): 3.05 ± 0.079

LEYYAMLSKTKVYYFQG [RPL30]
protein stability index (doa10∆): 2.4 ± 0.096 | protein stability index (pdr5∆): 3.08 ± 0.1 | protein stability index (san1∆): 2.09 ± 0.079 | protein stability index (ubr1∆): 2.89 ± 0.13

FDYSVILNSIPAAANLD [YJL039C/NUP192]
protein stability index (doa10∆): 1.48 ± 0.051 | protein stability index (pdr5∆): 1.44 ± 0.083 | protein stability index (san1∆): 1.71 ± 0.079 | protein stability index (ubr1∆): 1.26 ± 0.047

EIDDTEAEVTAEVNGGD [BRR2]
protein stability index (doa10∆): 3.13 ± 0.088 | protein stability index (pdr5∆): 2.79 ± 0.12 | protein stability index (san1∆): 3.01 ± 0.13 | protein stability index (ubr1∆): 3.16 ± 0.065

LLRSVLVLLELVSSGDR [YML103C/NUP188]
protein stability index (doa10∆): 1.84 ± 0.23 | protein stability index (pdr5∆): 2.03 ± 0.12 | protein stability index (ubr1∆): 2.28 ± 0.15

TALEHKVVNGNSADAAY [FAS2]
protein stability index (doa10∆): 2.84 ± 0.08 | protein stability index (pdr5∆): 3.09 ± 0.088 | protein stability index (san1∆): 3.05 ± 0.063 | protein stability index (ubr1∆): 3.13 ± 0.06

CEINYYEILLKILITYG [SRB8]
protein stability index (doa10∆): 1.2 ± 0.047 | protein stability index (pdr5∆): 1.54 ± 0.065 | protein stability index (san1∆): 1.17 ± 0.1 | protein stability index (ubr1∆): 1.2 ± 0.076

PPGLDALVKPETQFKLS [CDC53]
protein stability index (doa10∆): 2.82 ± 0.058 | protein stability index (pdr5∆): 2.84 ± 0.055 | protein stability index (san1∆): 3.07 ± 0.036 | protein stability index (ubr1∆): 2.99 ± 0.046

EVSALVRSLPKEEQPKQ [PRP8]
protein stability index (doa10∆): 1.23 ± 0.075 | protein stability index (pdr5∆): 1.38 ± 0.082 | protein stability index (san1∆): 1.26 ± 0.12 | protein stability index (ubr1∆): 1.08 ± 0.051

ELQKLVHDLNKYKSNTN [SMC2]
protein stability index (doa10∆): 3.15 ± 0.072 | protein stability index (pdr5∆): 3.31 ± 0.071 | protein stability index (san1∆): 3.41 ± 0.047 | protein stability index (ubr1∆): 3.32 ± 0.06

LGHTKAALGEVASMELK [SIR2]
protein stability index (doa10∆): 2.79 ± 0.085 | protein stability index (pdr5∆): 2.96 ± 0.077 | protein stability index (san1∆): 3.23 ± 0.064 | protein stability index (ubr1∆): 2.98 ± 0.12

FKSTMLQVSEKDLFELE [ARP7]
protein stability index (doa10∆): 1.25 ± 0.089 | protein stability index (pdr5∆): 2.49 ± 0.11 | protein stability index (san1∆): 1.1 ± 0.16 | protein stability index (ubr1∆): 1.4 ± 0.098

YCDSMGRPQRKMMSFQA [RPB5]
protein stability index (doa10∆): 3.5 ± 0.12 | protein stability index (pdr5∆): 3.19 ± 0.13 | protein stability index (san1∆): 3.48 ± 0.058 | protein stability index (ubr1∆): 3.3 ± 0.09

SQIFDQLKDMQTIEMIT [SRB8]
protein stability index (doa10∆): 2.78 ± 0.058 | protein stability index (pdr5∆): 3.11 ± 0.049 | protein stability index (san1∆): 2.72 ± 0.049 | protein stability index (ubr1∆): 2.85 ± 0.043

RKCQFRTPDSISVNSSS [POP1]
protein stability index (doa10∆): 2.44 ± 0.074 | protein stability index (pdr5∆): 2.52 ± 0.073 | protein stability index (san1∆): 2.64 ± 0.056 | protein stability index (ubr1∆): 2.37 ± 0.062

SKSVPTPSLPIAPPVAP [SNF5]
protein stability index (doa10∆): 2.74 ± 0.057 | protein stability index (pdr5∆): 2.81 ± 0.061 | protein stability index (san1∆): 3.1 ± 0.045 | protein stability index (ubr1∆): 2.55 ± 0.061

PVKSIRARLKGKEGRIR [RPO21]
protein stability index (doa10∆): 3.36 ± 0.091 | protein stability index (pdr5∆): 3.22 ± 0.11 | protein stability index (san1∆): 3.33 ± 0.085 | protein stability index (ubr1∆): 2.94 ± 0.079

KRKYDEITHPPSTTDDE [SWI3]
protein stability index (doa10∆): 3.13 ± 0.11 | protein stability index (pdr5∆): 3.23 ± 0.12 | protein stability index (san1∆): 3.18 ± 0.071 | protein stability index (ubr1∆): 3.29 ± 0.082

LAVKVHGGSRYATKDGV [QCR2]
protein stability index (doa10∆): 1.62 ± 0.11 | protein stability index (pdr5∆): 1.18 ± 0.1 | protein stability index (san1∆): 1.17 ± 0.26 | protein stability index (ubr1∆): 1.07 ± 0.089

VSPNDNNSANNNAHSSD [YMR153W/NUP53]
protein stability index (doa10∆): 2.91 ± 0.05 | protein stability index (pdr5∆): 2.84 ± 0.06 | protein stability index (san1∆): 2.75 ± 0.053 | protein stability index (ubr1∆): 2.56 ± 0.037

QDEEQTEHLTELSDNEE [YCG1]
protein stability index (doa10∆): 3.29 ± 0.09 | protein stability index (pdr5∆): 3.37 ± 0.075 | protein stability index (san1∆): 3.33 ± 0.054 | protein stability index (ubr1∆): 3.02 ± 0.062

AGIKTRKFVFNPPKPRK [CYT1]
protein stability index (doa10∆): 3.06 ± 0.06 | protein stability index (pdr5∆): 3.19 ± 0.074 | protein stability index (san1∆): 3.03 ± 0.06 | protein stability index (ubr1∆): 3.07 ± 0.063

LDVTKEAQANLLTAKHG [RPO21]
protein stability index (doa10∆): 3.23 ± 0.17 | protein stability index (pdr5∆): 3.46 ± 0.18 | protein stability index (san1∆): 2.8 ± 0.19 | protein stability index (ubr1∆): 3.18 ± 0.19

GSGQPDNDTVVTNDDKS [SRB8]
protein stability index (doa10∆): 3.08 ± 0.23 | protein stability index (pdr5∆): 3.29 ± 0.17 | protein stability index (san1∆): 2.52 ± 0.15

KDWTDTFVYILEKLIFD [SRB8]
protein stability index (doa10∆): 2.39 ± 0.067 | protein stability index (pdr5∆): 2.72 ± 0.058 | protein stability index (san1∆): 2.73 ± 0.074 | protein stability index (ubr1∆): 1.93 ± 0.052

TDEALFENVKLLAEYDN [MED4]
protein stability index (doa10∆): 3.02 ± 0.11 | protein stability index (pdr5∆): 3.17 ± 0.1 | protein stability index (san1∆): 3.08 ± 0.088 | protein stability index (ubr1∆): 2.87 ± 0.073

KKQPSILVGGTLKDYQI [SNF2]
protein stability index (doa10∆): 2.31 ± 0.11 | protein stability index (pdr5∆): 2.71 ± 0.099 | protein stability index (san1∆): 2.35 ± 0.11 | protein stability index (ubr1∆): 2.47 ± 0.083

YCKGKTCRKHTQHKVTQ [RPL42A]
protein stability index (doa10∆): 2.77 ± 0.094 | protein stability index (pdr5∆): 3.06 ± 0.17 | protein stability index (san1∆): 2.54 ± 0.12 | protein stability index (ubr1∆): 2.91 ± 0.14

YYVPYSKLMPVLKSSVY [RPC82]
protein stability index (doa10∆): 1.53 ± 0.064 | protein stability index (pdr5∆): 1.85 ± 0.079 | protein stability index (san1∆): 1.57 ± 0.098 | protein stability index (ubr1∆): 1.74 ± 0.079

KDYHTLANNVESKLRDD [RPS18A]
protein stability index (doa10∆): 3.29 ± 0.14 | protein stability index (pdr5∆): 3.48 ± 0.15 | protein stability index (san1∆): 3.39 ± 0.11 | protein stability index (ubr1∆): 3.33 ± 0.088

WREQLRNRDIALFQPPN [ROX3]
protein stability index (doa10∆): 2.31 ± 0.066 | protein stability index (pdr5∆): 2.95 ± 0.066 | protein stability index (san1∆): 2.73 ± 0.059 | protein stability index (ubr1∆): 1.96 ± 0.047

TAFQTQRTAQDRVQQDS [YML031W/NDC1]
protein stability index (doa10∆): 2.94 ± 0.086 | protein stability index (pdr5∆): 2.62 ± 0.075 | protein stability index (san1∆): 3.26 ± 0.076 | protein stability index (ubr1∆): 2.35 ± 0.079

SGNNSKKRKNKSSGSSM [ROX3]
protein stability index (doa10∆): 2.65 ± 0.14 | protein stability index (pdr5∆): 2.94 ± 0.075 | protein stability index (san1∆): 2.91 ± 0.12 | protein stability index (ubr1∆): 3.17 ± 0.068

NKLTILGRDYPIEVDEE [IRR1]
protein stability index (doa10∆): 2.28 ± 0.1 | protein stability index (pdr5∆): 2.56 ± 0.12 | protein stability index (san1∆): 2.38 ± 0.11 | protein stability index (ubr1∆): 2.64 ± 0.066

VVTSSVAESFTDEADSS [SNF2]
protein stability index (doa10∆): 3.03 ± 0.095 | protein stability index (pdr5∆): 2.98 ± 0.1 | protein stability index (san1∆): 3.15 ± 0.075 | protein stability index (ubr1∆): 3.01 ± 0.084

SIQMEFMLRKQDPKTLV [SSN2]
protein stability index (doa10∆): 1.73 ± 0.066 | protein stability index (pdr5∆): 2 ± 0.049 | protein stability index (san1∆): 1.82 ± 0.08 | protein stability index (ubr1∆): 2.05 ± 0.045

HINSILLARVIQMNNSL [SNF11]
protein stability index (doa10∆): 2.22 ± 0.13 | protein stability index (pdr5∆): 1.94 ± 0.11 | protein stability index (san1∆): 1.96 ± 0.12 | protein stability index (ubr1∆): 1.7 ± 0.092

WDLLPEPIRFLPNQFPL [SWI1]
protein stability index (doa10∆): 2.54 ± 0.059 | protein stability index (pdr5∆): 2.58 ± 0.071 | protein stability index (san1∆): 2.26 ± 0.054 | protein stability index (ubr1∆): 2.31 ± 0.069

IELKTDWVRFLALALGI [RPN1]
protein stability index (doa10∆): 1.38 ± 0.13 | protein stability index (pdr5∆): 1.37 ± 0.077 | protein stability index (san1∆): 1.41 ± 0.12 | protein stability index (ubr1∆): 1.13 ± 0.067

PTKAAQRARDQDSIDIS [GAL11]
protein stability index (doa10∆): 3.21 ± 0.094 | protein stability index (pdr5∆): 3.16 ± 0.081 | protein stability index (san1∆): 3.36 ± 0.077 | protein stability index (ubr1∆): 3.22 ± 0.073

CRVCSSHTGLIRKYGLN [RPS29A]
protein stability index (doa10∆): 1.5 ± 0.13 | protein stability index (pdr5∆): 1.53 ± 0.1 | protein stability index (san1∆): 1.48 ± 0.15 | protein stability index (ubr1∆): 1.59 ± 0.069

YHNKHMMCDFGTGNNNK [DIB1]
protein stability index (doa10∆): 2.7 ± 0.053 | protein stability index (pdr5∆): 2.86 ± 0.055 | protein stability index (san1∆): 2.73 ± 0.049 | protein stability index (ubr1∆): 2.98 ± 0.041

TRALQISMNAPVFVDLE [RPO26]
protein stability index (ubr1∆): 3 ± 0.19

KQVLLRLNPYAKVFAAE [RPL4A]
protein stability index (doa10∆): 2.12 ± 0.067 | protein stability index (pdr5∆): 2.6 ± 0.11 | protein stability index (ubr1∆): 2.42 ± 0.074

IYNKMIGVLNNSSESDE [RPN13]
protein stability index (doa10∆): 2.74 ± 0.14 | protein stability index (pdr5∆): 3.12 ± 0.12 | protein stability index (san1∆): 2.94 ± 0.06 | protein stability index (ubr1∆): 2.94 ± 0.067

EVQRILIELLTQMDGFD [RPT3]
protein stability index (doa10∆): 1.36 ± 0.054 | protein stability index (pdr5∆): 2.08 ± 0.081 | protein stability index (san1∆): 1.41 ± 0.16 | protein stability index (ubr1∆): 1.81 ± 0.069

LEEIRGNPLSIGTLEEI [RPT2]
protein stability index (doa10∆): 3.29 ± 0.1 | protein stability index (pdr5∆): 3.42 ± 0.14 | protein stability index (san1∆): 3.13 ± 0.076 | protein stability index (ubr1∆): 3.25 ± 0.17

TQAAEFLSPYISTHLKT [IRR1]
protein stability index (doa10∆): 1.96 ± 0.039 | protein stability index (pdr5∆): 2.32 ± 0.059 | protein stability index (san1∆): 2.03 ± 0.073 | protein stability index (ubr1∆): 2.21 ± 0.043

IKEIINASKVISTPIIN [RPO31]
protein stability index (doa10∆): 3.08 ± 0.11 | protein stability index (pdr5∆): 1.88 ± 0.17 | protein stability index (san1∆): 1.03 ± 0.18 | protein stability index (ubr1∆): 1.53 ± 0.25

FDSELIHLKQKLSESLD [SMC3]
protein stability index (pdr5∆): 2.88 ± 0.17 | protein stability index (san1∆): 3.22 ± 0.13 | protein stability index (ubr1∆): 3.24 ± 0.14

LNDLNHLLVQLQKNDVY [REC8]
protein stability index (doa10∆): 2.52 ± 0.051 | protein stability index (pdr5∆): 2.48 ± 0.047 | protein stability index (san1∆): 2.47 ± 0.058 | protein stability index (ubr1∆): 2.17 ± 0.042

KKRKAGRPRGRPKKVKL [SNF2]
protein stability index (pdr5∆): 3.09 ± 0.12 | protein stability index (san1∆): 2.96 ± 0.21 | protein stability index (ubr1∆): 2.9 ± 0.11
